For one molecule, inhibition of deadenylation by 50 nM CCR4-NOT MINI (50 nM 7-mer-A20 RNA, stopped after 32 min), MBP-RNF219-C titrated 0.05-5.0 µM; inhibition already apparent results are on record in article PMC8660800.

In this assay the target is NOT9 module of the human CCR4-NOT complex (human) (UniProt Q92600).

B1: MBP-RNF219-C (residues 434-726) with a C-terminal StrepII tag (domain or fragment)
chain: SSNVSNKDSSEDDISRSENEKKSECFSSPKTGFWDCCSTSYAQNLDFESSEGNTIANSVGEISSKLSEKSGLCLSKRLNSIRSFEMNRTRTSSEASMDAAYLDKISELDSMMSESDNSKSPCNNGFKSLDLDGLSKSSQGSEFLEEPDKLEEKTELNLSKGSLTNDQLENGSEWKPTSFFLLSPSDQEMNEDFSLHSSSCPVTNEIKPPSCLFQTEFSQGILLSSSHRLFEDQRFGSSLFKMSSEMHSLHNHLQSPWSTSFVPEKRNKNVNQSTKRKIQSSLSSASPSKATKS
In the case of B1, the inhibition of deadenylation by 50 nM CCR4-NOT MINI (50 nM 7-mer-A20 RNA, stopped after 32 min), MBP-RNF219-C titrated 0.05-5.0 µM; inhibition already apparent at 0.05 µM stood at 2.5 µM.
